Measurements as given in article PMC5757173.

Experiments:
[1] = biological target: FITC (fluorescein isothiocyanate)-labeled RAR (RARΔAB, His-tag); experiment: fluorescence polarisation; fluorescence anisotropy; FEZ1 (1 nM to 5000 nM) titrated into 50 nM FITC-labeled RAR; 20 mM Tris pH 8.0, 50 mM NaCl, 2 mM EDTA; 10 °C; absence of all-trans retinoic acid
[2] = biological target: FITC (fluorescein isothiocyanate)-labeled RAR (RARΔAB, His-tag); experiment: fluorescence polarisation; fluorescence anisotropy; FEZ1 (1 nM to 5000 nM) titrated into 50 nM FITC-labeled RAR; 20 mM Tris pH 8.0, 50 mM NaCl, 2 mM EDTA; 10 °C; presence of all-trans retinoic acid (AT)

- Kd [1]: 3.4 µM
- Kd [2]: 3.8 µM
B1: Fasciculation and elongation zeta-1 (1-392) protein fused to an N-terminal 6xHis-tag (natural protein)
chain: MEAPLVSLDEEFEDLRPSCSEDPEEKPQCFYGSSPHHLEDPSLSELENFSSEIISFKSMEDLVNEFDEKLNVCFRNYNAKTENLAPVKNQLQIQEEEETLQDEEVWDALTDNYIPSLSEDWRDPNIEALNGNCSDTEIHEKEEEEFNEKSENDSGINEEPLLTADQVIEEIEEMMQNSPDPEEEEEVLEEEDGGETSSQADSVLLQEMQALTQTFNNNWSYEGLRHMSGSELTELLDQVEGAIRDFSEELVQQLARRDELEFEKEVKNSFITVLIEVQNKQKEQRELMKKRRKEKGLSLQSSRIEKGNQMPLKRFSMEGISNILQSGIRQTFGSSGTDKQYLNTVIPYEKKASPPSVEDLQMLTNILFAMKEDNEKVPTLLTDYILKVLCPT
